System: [H][C@@]12COP(=O)(O)O[C@@]1([H])[C@@H](O)[C@H](n1cnc3c(=O)[nH]c(N)nc31)O2
Test: purified protein
[1] = catalytic site (Km, reduced affinity), allosteric cGMP binding unchanged

Substance “PDE5 (human PDE5A1, G659A) (Homo sapiens; G659A)” has a Km [1] of 71.2 ± 1.2 µM.

“PDE5 (human PDE5A1, G659P) (Homo sapiens; G659P)” showed a Km [1] of 131.5 ± 7.4 µM.

PDE5 (human PDE5A1, WT) (Homo sapiens) was tested, and the Km (catalytic site (Km), also allosteric site) was 2.91 ± 0.8 µM.

Source: paper PMC2760630
